Our source for the Kd and response (% positive binding) values is article PMC5871715.

The target in assay [1] is Netrin-1 (Homo sapiens) (UniProt O95631). The note with it: cited from earlier work.
Assay [2] has the same target. The following applies: cited from earlier work. This is another data set of the same source.
Assay [3] deals with full-length wild-type rat DCC on the cell surface (UniProt Q63155). In words: cell-binding assay. The note with it: n = 100 for each group; parent: est. 49; read off a plot.

Like-named read-outs stand apart in the source and are kept apart here.

Sequence of full-length wild-type rat DCC on the cell surface (Q63155 26-1445): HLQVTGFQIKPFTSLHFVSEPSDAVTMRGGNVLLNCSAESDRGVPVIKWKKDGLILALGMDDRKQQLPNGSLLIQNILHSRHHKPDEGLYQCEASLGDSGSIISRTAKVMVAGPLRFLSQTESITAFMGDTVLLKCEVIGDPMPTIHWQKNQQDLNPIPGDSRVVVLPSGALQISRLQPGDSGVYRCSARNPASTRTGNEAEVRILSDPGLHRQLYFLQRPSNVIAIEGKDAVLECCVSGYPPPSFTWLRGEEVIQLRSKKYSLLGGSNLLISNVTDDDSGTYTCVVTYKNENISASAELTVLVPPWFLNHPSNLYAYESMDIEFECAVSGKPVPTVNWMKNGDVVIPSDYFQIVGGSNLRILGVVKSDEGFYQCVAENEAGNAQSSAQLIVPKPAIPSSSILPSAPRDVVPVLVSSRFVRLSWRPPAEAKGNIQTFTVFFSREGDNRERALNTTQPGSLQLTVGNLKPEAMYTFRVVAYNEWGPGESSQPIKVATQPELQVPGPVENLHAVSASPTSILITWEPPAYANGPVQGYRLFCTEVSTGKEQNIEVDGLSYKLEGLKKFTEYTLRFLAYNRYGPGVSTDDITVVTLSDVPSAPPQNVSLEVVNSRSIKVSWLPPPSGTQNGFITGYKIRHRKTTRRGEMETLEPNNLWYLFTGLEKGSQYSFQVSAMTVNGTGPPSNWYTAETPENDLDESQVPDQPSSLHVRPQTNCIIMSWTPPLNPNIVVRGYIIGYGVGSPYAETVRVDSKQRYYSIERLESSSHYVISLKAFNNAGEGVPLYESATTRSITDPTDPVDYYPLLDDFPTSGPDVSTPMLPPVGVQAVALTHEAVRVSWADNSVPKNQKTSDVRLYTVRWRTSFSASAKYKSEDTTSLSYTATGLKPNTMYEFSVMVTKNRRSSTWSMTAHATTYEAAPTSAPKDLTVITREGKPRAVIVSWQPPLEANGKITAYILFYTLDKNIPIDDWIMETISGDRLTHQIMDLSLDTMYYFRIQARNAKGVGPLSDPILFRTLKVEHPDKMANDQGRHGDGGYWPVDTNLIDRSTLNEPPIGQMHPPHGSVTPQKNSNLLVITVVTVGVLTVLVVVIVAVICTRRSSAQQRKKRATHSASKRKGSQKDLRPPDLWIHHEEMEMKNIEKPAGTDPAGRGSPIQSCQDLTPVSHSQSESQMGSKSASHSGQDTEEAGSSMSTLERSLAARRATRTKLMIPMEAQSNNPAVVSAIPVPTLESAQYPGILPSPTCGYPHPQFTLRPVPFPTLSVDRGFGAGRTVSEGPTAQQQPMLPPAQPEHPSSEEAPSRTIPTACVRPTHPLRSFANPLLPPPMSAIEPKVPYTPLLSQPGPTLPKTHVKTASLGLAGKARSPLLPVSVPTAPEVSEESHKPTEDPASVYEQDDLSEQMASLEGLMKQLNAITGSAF
Sequence of DCC Fn5 (P43146 846-942): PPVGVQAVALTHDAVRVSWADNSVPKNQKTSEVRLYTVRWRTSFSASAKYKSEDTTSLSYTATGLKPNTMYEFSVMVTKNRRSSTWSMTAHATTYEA

For DCC Fn5 (from UniProt P43146), the Kd in assay [1] was 5000 nM.

Turning to Draxin (from UniProt Q8NBI3), in assay [2], the Kd is 10 nM.

As for wild-type rDraxin-Flag R282A, the response (% positive binding) in assay [3] was determined as 59.

Take wild-type rDraxin-Flag R282D: the response (% positive binding) in assay [3] came to 6.

As for wild-type rDraxin-Flag R322A, the response (% positive binding) in assay [3] amounted to 3.

As to wild-type rDraxin-Flag R322D, the response (% positive binding) in assay [3] worked out at 10.
